The results in this text go back to article PMC10579536 (Research and Practice in Thrombosis and Haemostasis, 2023).

Sequences and labels used below:
B2: Tie-2/Fc (Fc fusion, human, UniProt Q02763 23-748, looked up)
chain: AMDLILINSLPLVSDAETSLTCIASGWRPHEPITIGRDFEALMNQHQDPLEVTQDVTREWAKKVVWKREKASKINGAYFCEGRVRGEAIRIRTMKMRQQASFLPATLTMTVDKGDNVNISFKKVLIKEEDAVIYKNGSFIHSVPRHEVPDILEVHLPHAQPQDAGVYSARYIGGNLFTSAFTRLIVRRCEAQKWGPECNHLCTACMNNGVCHEDTGECICPPGFMGRTCEKACELHTFGRTCKERCSGQEGCKSYVFCLPDPYGCSCATGWKGLQCNEACHPGFYGPDCKLRCSCNNGEMCDRFQGCLCSPGWQGLQCEREGIQRMTPKIVDLPDHIEVNSGKFNPICKASGWPLPTNEEMTLVKPDGTVLHPKDFNHTDHFSVAIFTIHRILPPDSGVWVCSVNTVAGMVEKPFNISVKVLPKPLNAPNVIDTGHNFAVINISSEPYFGDGPIKSKKLLYKPVNHYEAWQHIQVTNEIVTLNYLEPRTEYELCVQLVRRGEGGEGHPGPVRRFTTASIGLPPPRGLNLLPKSQTTLNLTWQPIFPSSEDDFYVEVERRSVQKSDQQNIKVPGNLTSVLLNNLHPREQYVVRARVNTKAQGEWSEDLTAWTLSDILPPQPENIKISNITHSSAVISWTILDGYSISSITIRYKVQGKNEDQHVDVKIKNATITQYQLKGLEPETAYQVDIFAENNIGSSNPAFSHELVTLPESQAPADLGGGKMLL
B4: Recombinant human angiopoietin-2 (ligand, UniProt O15123 19-496, looked up)
chain: YNNFRKSMDSIGKKQYQVQHGSCSYTFLLPEMDNCRSSSSPYVSNAVQRDAPLEYDDSVQRLQVLENIMENNTQWLMKLENYIQDNMKKEMVEIQQNAVQNQTAVMIEIGTNLLNQTAEQTRKLTDVEAQVLNQTTRLELQLLEHSLSTNKLEKQILDQTSEINKLQDKNSFLEKKVLAMEDKHIIQLQSIKEEKDQLQVLVSKQNSIIEELEKKIVTATVNNSVLQKQQHDLMETVNNLLTMMSTSNSAKDPTVAKEEQISFRDCAEVFKSGHTTNGIYTLTFPNSTEEIKAYCDMEAGGGGWTIIQRREDGSVDFQRTWKEYKVGFGNPSGEYWLGNEFVSQLTNQQRYVLKIHLKDWEGNEAYSLYEHFYLSSEELNYRIHLKGLTGTAGKISSISQPGNDFSTKDGDNDKCICKCSQMLTGGWWFDACGPSNLNGMYYPQRQNTNKFNGIKWYYWKGSGYSLKATTMMIRPADF
B5: Recombinant human angiopoietin-1 (ligand, UniProt Q15389 16-498, looked up)
chain: HIGCSNQRRSPENSGRRYNRIQHGQCAYTFILPEHDGNCRESTTDQYNTNALQRDAPHVEPDFSSQKLQHLEHVMENYTQWLQKLENYIVENMKSEMAQIQQNAVQNHTATMLEIGTSLLSQTAEQTRKLTDVETQVLNQTSRLEIQLLENSLSTYKLEKQLLQQTNEILKIHEKNSLLEHKILEMEGKHKEELDTLKEEKENLQGLVTRQTYIIQELEKQLNRATTNNSVLQKQQLELMDTVHNLVNLCTKEGVLLKGGKREEEKPFRDCADVYQAGFNKSGIYTIYINNMPEPKKVFCNMDVNGGGWTVIQHREDGSLDFQRGWKEYKMGFGNPSGEYWLGNEFIFAITSQRQYMLRIELMDWEGNRAYSQYDRFHIGNEKQNYRLYLKGHTGTAGKQSSLILHGADFSTKDADNDNCMCKCALMLTGGWWFDACGPSNLNGMFYTAGQNHGKLNGIKWHYFKGPSYSLRSTTMMIRPLDF

Holding throughout (assay): ELISA
Background: ELISA stands for enzyme-linked immunosorbent assay.

Experiment [1] addresses Recombinant VWF fragment D’-D3-HPC4.
Experiment [2] has as its target Recombinant human angiopoietin-2 (human) (UniProt O15123).
Experiment [3] concerns the target B4.
Experiment [4] concerns the target B4. The source holds these as a separate data set.
Experiment [5] addresses B5.
For the experiment “Tie-2/Fc”, the target named is B2.
For experiment [6], the target named is von Willebrand factor (plasma-derived) (human (endogenous in plasma), UniProt P04275 764-2813).

Where two headings read alike, the source gives them in different places.

For the molecule “Recombinant FVIII (from UniProt P00451 20-2351) (natural protein)”, the maximal percent inhibition of binding to Ang-2 in experiment [1] came out at 77%.

As usually defined, the EC50 is the concentration that produces a half-maximal response. In the case of “Recombinant VWF fragment D’-D3-HPC4 (domain or fragment)”, in experiment [2], the EC50 was determined as 159 nM.

B1: Recombinant VWF D4 domain fused to Fc (Fc fusion)
chain: PCVCTGSSTRHIVTFDGQNFKLTGSCSYVLFQNKEQDLEVILHNGACSPGARQGCMKSIEVKHSALSVELHSDMEVTVNGRLVSVPYVGGNMEVNVYGAIMHEVRFNHLGHIFTFTPQNNEFQLQLSPKTFASKTYGLCGICDENGANDFMLRDGTVTTDWKTLVQEWTVQRPGQTCQPILEEQCLVPDSSHCQVLLLPLFAECHKVLAPATFYAICQQDSCHQEQVCEVIASYAHLCRTNGVCVDWRTPDFCAMSCPPSLVYNHCEHGCPRHCDGNVSSCGDHPSEGCFCPPDKVMLEGSCVPEEACTQCIGEDGVQHQFLEAWVPDHQPCQICTCLSGRKVNCTTQPCPT
Take B1: in experiment [3], the EC50 turned out to be 18 ± 6 nM.

For B2, the EC50 in experiment [4] and in experiment [5] was 0.2 ± 0.1 nM each time.

B3: Recombinant VWF A2 domain fused to Fc (Fc fusion)
chain: PGLLGVSTLGPKRNSMVLDVAFVLEGSDKIGEADFNRSKEFMEEVIQRMDVGQDSIHVTVLQYSYMVTVEYPFSEAQSKGDILQRVREIRYQGGNRTNTGLALRYLSDHSFLVSQGDREQAPNLVYMVTGNPASDEIKRLPGDIQVVPIGVGPNANVQELERIGWPNAPILIQDFETLPREAPDLVLQRCCSG
On to B3, for which the EC50 in experiment [3] worked out at 36.7 ± 9.7 nM.

Regarding B4, the binding result in the experiment with Tie-2/Fc is given as “binds”. Moreover, in experiment [6], the EC50 is 5.3 ± 1 nM.

Consider B5, for which the binding result in the experiment with Tie-2/Fc was “binds”.
